Tests used:
[1] = target: T1, extracellular region of human signal regulatory protein gamma (SIRPγ) (human, UniProt Q9P1W8-1, high-mannose N-glycans (CHO Lec3.2.8.1); in the crystal de-glycosylated with endoglycosidase F1, N-acetylglucosamine modelled at residue 240); assay: AUC; sedimentation velocity of SIRPγ: FabOX117 mixtures (2:1 and 1:2), total 1 mg/ml (13.7/6.3 μM), 40 000 rpm, 20 mM Tris-HCl pH 7.5, 200 mM NaCl, 20°C; settings: both partners purified
T1 construct: SIRPγ, human, residues 29-347 of NP_061026, three Ig-like domains d1-d3; Glycosylated in the AUC experiments, Endo F1-treated in the crystal; also called SIRPβ2
T1 sequence (Q9P1W8 29-347): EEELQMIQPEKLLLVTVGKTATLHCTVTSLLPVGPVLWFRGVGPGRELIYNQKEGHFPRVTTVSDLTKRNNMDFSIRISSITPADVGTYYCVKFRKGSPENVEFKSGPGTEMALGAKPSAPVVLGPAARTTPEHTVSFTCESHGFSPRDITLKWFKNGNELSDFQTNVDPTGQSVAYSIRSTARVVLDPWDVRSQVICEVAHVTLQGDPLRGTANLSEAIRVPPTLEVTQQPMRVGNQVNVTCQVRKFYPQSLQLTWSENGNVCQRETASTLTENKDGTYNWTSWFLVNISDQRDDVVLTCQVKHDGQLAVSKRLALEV

[2] = target: T1, extracellular region of human signal …; assay: AUC; sedimentation equilibrium of SIRPγ: FabOX117 mixtures at 2:1, 1:1 and 1:2, total 1 mg/ml, 15 000, 20 000, 28 000 and 36 000 rpm, fitted to A + B ↔ AB (SEDPHAT), 20 mM Tris-HCl pH 7.5, 200 mM NaCl, 20°C; settings: both partners purified

B1: Fab fragment of the anti-SIRP monoclonal antibody OX117 (Fab, V domains shown)
VH: EVKLQQSGPELVKPGASVKISCKASGYSFTSYYIHWVKQRPGQGLEWIGWVFPGSGNTKYNEKFKGKATLTADTSSSTAYMQLSSLTSEDSAVYFCARGNYDRAWFAYWGQGTLVTVSA
VL: DIVITQSPKFMSTSVGDRVSITCKASQDVSTAVAWFQQKPGQSPKLLIYSASYRYTGVPDRFTGSGSGTDFTFTISSVQAEDLAVYYCQQHYSTPWTFGGGTKLEIK
notes: Fd region (Vh and CH1 domains) of OX117, 220 residues; light chain of OX117, 214 residues; Recombinant Fab; also called FabOX117; not shown: His6, C-terminal, kept
Q: Which results are given for B1?
A: stoichiometry N [1]: 1; Kd [2]: 1200 nM

From article PMC3716694, “Crystal structure of signal regulatory protein gamma (SIRPγ) in complex with an antibody Fab fragment” (BMC Structural Biology, 2013)
